Patent publication US20210139545A1 (IBA, published 2021)
Where a chain is given by its changes, count along the chain named.

Experiments:
[1] = target: T1, E. coli alkaline phosphatase Strep-tag®II fusion protein (E. coli, UniProt P00634 22-471 = phosphatase); test: ELISA, mutein coated, BAP-StrepII titrated
T1 construct: mature; also called BAP-StrepII; BAP-StrepIII

[2] = target: T2, cytochrome b562 with C-terminally fused Strep-tagII (E. coli); test: affinity chromatography, overloaded Sepharose column, washed, biotin elution
T2 construct: also called Cytb562-StrepII; Cytb562-StrepIII

[3] = target: T2, cytochrome b562 with C-terminally fused …; test: affinity chromatography, capture from dilute solution (500 µg applied, 1 mg mutein)
[4] = target: T1, E. coli alkaline phosphatase …; test: ELISA, second experiment, mutein coated, BAP-StrepII titrated
[5] = target: T2, cytochrome b562 with C-terminally fused …; test: SPR Biacore
Procedure: (§1) The resulting relative immobilized amounts are given in RU (arbitrary units) (column 3). To achieve the low density immobilization both muteins were applied applied at a concentration of 1 μg/ml and a flow rate of 10 μl/min. To achieve the immobilization at higher density, mutein m1-9 was used at a concentration of 20 μg/ml and mutein “1” was used at a concentration of 50 μg/ml. […] Prior to analysis, the fusion protein preparations were dialyzed against Buffer W (100 mM Tris-CI pH8, 150 mM NaCl, 1 mM EDTA), and checked via analytical size exclusion chromatography to be essentially free of aggregates (a content of max. 5% was accepted, in most cases it was below 1%) to ensure to measure the interaction of monovalent fusion proteins with immobilized streptavidin muteins only.

[6] = target: T3, Green Fluorescent Protein with C-terminal Strep-tagII (Aequorea victoria (Water jellyfish) …, UniProt P42212 1-237 = GFP, limits assumed); test: SPR Biacore
T3 construct: also called GFP-StrepII; GFP-StrepIII
Procedure: as §1

[7] = target: T2, cytochrome b562 with C-terminally fused …; test: SPR Biacore T100, mutein immobilised at 170 RU, 1:1 global fit
Procedure: (§2) To achieve the immobilization at higher density, mutein m1-9 was used at a concentration of 20 μg/ml and mutein “1” was used at a concentration of 50 μg/ml. […] Prior to analysis, the fusion protein preparations were dialyzed against Buffer W (100 mM Tris-CI pH8, 150 mM NaCl, 1 mM EDTA), and checked via analytical size exclusion chromatography to be essentially free of aggregates (a content of max. 5% was accepted, in most cases it was below 1%) to ensure to measure the interaction of monovalent fusion proteins with immobilized streptavidin muteins only. […] Data were fitted using the kinetic global fit (Langmuir 1:1) and resulting on- and off-rates and deduced dissociation constants are shown in column 4, column 5 and column 6, respectively. BiaCore data were measured by Biaffin GmbH & Co KG, Kassel, Germany.

[8] = target: T3, Green Fluorescent Protein with …; test: as above
Procedure: as §2

[9] = target: T4, Green Fluorescent Protein with C-terminal di-tag3; test: as above
T4 construct: also called GFP-di-tag3
Procedure: as §2

[10] = target: T5, cytochrome b562 with C-terminal di-tag3 (E. coli); test: as above
T5 construct: also called Cytb562-di-tag3
Procedure: as §2

[11] = target: T2, cytochrome b562 with C-terminally fused …; test: SPR Biacore T100, mutein immobilised at 4350 RU, 1:1 global fit
Procedure: as §2

[12] = target: T3, Green Fluorescent Protein with …; test: as above
Procedure: as §2

[13] = target: T4, Green Fluorescent Protein with …; test: as above
Procedure: as §2

[14] = target: T5, cytochrome b562 with C-terminal di-tag3; test: as above
Procedure: as §2

[15] = target: T2, cytochrome b562 with C-terminally fused …; test: affinity chromatography, retention after overload; tied to m45 by Table 9 (308 % against 11 %)

B1: mutein“1”-m41 (designed binder)
chain: EAGITGTWYNQLGSTFIVTAGADGALTGTYVTARGNAESRYVLTGRYDSAPATDGSGTALGWTVAWKNNYRNAHSATTWSGQYVGGAEARINTQWLLTSGTTEAWYSTLVGHDTFTKVKPSAAS
notes: Library 3 clone on mutein “1”
(Δ(A405-A595)/Δt)max [1]: 613 mOD | KD(mutein“1”)/KDmutein [1]: 8.5 | Kd [1]: 13 nM | Retained Cytb562-StrepII [2]: 289 µg | Retained Cytb562-StrepII per immobilized mutein [2]: 0.2 µg/µg | Retained Cytb562-StrepII per immobilized mutein relative to mutein “1” [2]: 155% | yield of Cytb562-StrepII applied [3]: 47%

B2: mutein“1”-m302 (designed binder)
chain: B1 chain with A104H
notes: Library 7 clone on mutein “1”, 118 and 119 deleted
(Δ(A405-A595)/Δt)max [1]: 726 mOD | KD(mutein“1”)/KDmutein [1]: 22 | Kd [1]: 5 nM | Retained Cytb562-StrepII [2]: 350 µg | Retained Cytb562-StrepII per immobilized mutein [2]: 0.28 µg/µg | Retained Cytb562-StrepII per immobilized mutein relative to mutein “1” [2]: 221% | yield of Cytb562-StrepII applied [3]: 63%

B3: mutein“1”-m301 (designed binder)
chain: B1 chain with A104H, Y106M
notes: as for B2
(Δ(A405-A595)/Δt)max [1]: 725 mOD | KD(mutein“1”)/KDmutein [1]: 11 | Kd [1]: 10 nM | Retained Cytb562-StrepII [2]: 400 µg | Retained Cytb562-StrepII per immobilized mutein [2]: 0.28 µg/µg | Retained Cytb562-StrepII per immobilized mutein relative to mutein “1” [2]: 225% | yield of Cytb562-StrepII applied [3]: 57%

B4: mutein“1”-m212 (designed binder)
chain: B1 chain with A104H, Y106L
notes: Library 6 clone on mutein “1”, 118 and 119 deleted
(Δ(A405-A595)/Δt)max [1]: 607 mOD | KD(mutein“1”)/KDmutein [1]: 6.5 | Kd [1]: 17 nM | Retained Cytb562-StrepII [2]: 390 µg | Retained Cytb562-StrepII per immobilized mutein [2]: 0.25 µg/µg | Retained Cytb562-StrepII per immobilized mutein relative to mutein “1” [2]: 197% | yield of Cytb562-StrepII applied [3]: 47%

B5: mutein“1”-m207 (designed binder)
chain: B1 chain with A104T, Y106L
notes: as for B4
(Δ(A405-A595)/Δt)max [1]: 493 mOD | KD(mutein“1”)/KDmutein [1]: 4.1 | Kd [1]: 27 nM | Retained Cytb562-StrepII [2]: 358 µg | Retained Cytb562-StrepII per immobilized mutein [2]: 0.29 µg/µg | Retained Cytb562-StrepII per immobilized mutein relative to mutein “1” [2]: 229% | yield of Cytb562-StrepII applied [3]: 55%

B6: mutein m402 (designed binder)
chain: EAGITGTWYNQLGSTFIVTAGADGALTGTYACARGNAECRYVLTGRYDSAPATDGSGTALGWTVAWKNNYRNAHSATTWSGQYVGGAEARINTQWLLTSGTTEANAWKSTLVGHDTFTKVKPSAAS
notes: Library 1 clone
Kd [1]: 92 nM | Retained Cytb562-StrepII [2]: 111 µg | Retained Cytb562-StrepII per immobilized mutein [2]: 0.14 µg/µg | Retained Cytb562-StrepII per immobilized mutein relative to mutein “1” [2]: 111% | yield of Cytb562-StrepII applied [3]: 31%

B7: mutein“1”-m23 (designed binder)
chain: B6 chain with A31V, C32T, C39S, A104Y, W107Y, K108A
notes: Library 3 clone on mutein “1”
(Δ(A405-A595)/Δt)max [1]: 968 mOD | KD(mutein“1”)/KDmutein [1]: 9.2 | Kd [1]: 12 nM | (Δ(A405-A595)/Δt)max [4]: 644 mOD | Kd [4]: 13 nM | Retained Cytb562-StrepII [2]: 479 µg | Retained Cytb562-StrepII per immobilized mutein [2]: 0.31 µg/µg | Retained Cytb562-StrepII per immobilized mutein relative to mutein “1” [2]: 245% | yield of Cytb562-StrepII applied [3]: 60%

B8: mutein“1”-m101 (designed binder)
chain: B6 chain with A31V, C32T, C39S, A104Y, W107F, K108L
notes: Library 5 clone on mutein “1”
(Δ(A405-A595)/Δt)max [1]: 589 mOD | KD(mutein“1”)/KDmutein [1]: 7.9 | Kd [1]: 14 nM

B9: mutein m1-9 (designed binder)
chain: B6 chain with A31V, C32T, C39S, A104E, W107G, K108Y
affinity increase relative to mutein “1” [5]: ~30 fold | affinity increase relative to mutein “1” [6]: ~10 fold | (Δ(A405-A595)/Δt)max [4]: 1700 mOD | Kd [4]: 25 nM | Kd [7]: 586 nM | koff [7]: 0.041 s⁻¹ | kon [7]: 70000 M⁻¹ s⁻¹ | Kd [8]: 32 nM | koff [8]: 0.0047 s⁻¹ | kon [8]: 150000 M⁻¹ s⁻¹ | Kd [9]: 0.053 nM | koff [9]: 1.5e-05 s⁻¹ | kon [9]: 280000 M⁻¹ s⁻¹ | Kd [10]: 0.014 nM | koff [10]: 1.5e-05 s⁻¹ | kon [10]: 1e+06 M⁻¹ s⁻¹ | Kd [11]: 485 nM | koff [11]: 0.025 s⁻¹ | kon [11]: 52000 M⁻¹ s⁻¹ | Kd [12]: 23 nM | koff [12]: 0.0038 s⁻¹ | kon [12]: 170000 M⁻¹ s⁻¹ | Kd [13]: 0.079 nM | koff [13]: 1.7e-05 s⁻¹ | kon [13]: 220000 M⁻¹ s⁻¹ | Kd [14]: 0.043 nM | koff [14]: 1.9e-05 s⁻¹ | kon [14]: 440000 M⁻¹ s⁻¹

B10: mutein“1”-m4 (designed binder)
chain: B6 chain with A31V, C32T, C39S, A104D, W107G, K108F
notes: Library 3 clone on mutein “1”
(Δ(A405-A595)/Δt)max [1]: 716 mOD | KD(mutein“1”)/KDmutein [1]: 12.2 | Kd [1]: 9 nM | (Δ(A405-A595)/Δt)max [4]: 518 mOD | Kd [4]: 12 nM | Retained Cytb562-StrepII [2]: 564 µg | Retained Cytb562-StrepII per immobilized mutein [2]: 0.35 µg/µg | Retained Cytb562-StrepII per immobilized mutein relative to mutein “1” [2]: 280% | yield of Cytb562-StrepII applied [3]: 64%

B11: mutein“1”-m36 (designed binder)
chain: B6 chain with A31V, C32T, C39S, A104Y, W107F, K108M
notes: Library 3 clone on mutein “1”
(Δ(A405-A595)/Δt)max [1]: 945 mOD | KD(mutein“1”)/KDmutein [1]: 9.2 | Kd [1]: 12 nM | Retained Cytb562-StrepII [2]: 429 µg | Retained Cytb562-StrepII per immobilized mutein [2]: 0.32 µg/µg | Retained Cytb562-StrepII per immobilized mutein relative to mutein “1” [2]: 254% | yield of Cytb562-StrepII applied [3]: 61%

B12: mutein“1”-m111 (designed binder)
chain: B6 chain with A31V, C32T, C39S, A104Y, W107L, K108W
notes: Library 5 clone on mutein “1”
(Δ(A405-A595)/Δt)max [1]: 492 mOD | KD(mutein“1”)/KDmutein [1]: 8.5 | Kd [1]: 13 nM | Retained Cytb562-StrepII [2]: 318 µg | Retained Cytb562-StrepII per immobilized mutein [2]: 0.31 µg/µg | Retained Cytb562-StrepII per immobilized mutein relative to mutein “1” [2]: 246% | yield of Cytb562-StrepII applied [3]: 67%

B13: mutein m4001 (designed binder)
chain: B6 chain with A33G
notes: Library 2 clone
Kd [1]: 20 nM | Kd [4]: 27 nM | Retained Cytb562-StrepII [2]: 175 µg | Retained Cytb562-StrepII per immobilized mutein [2]: 0.16 µg/µg | Retained Cytb562-StrepII per immobilized mutein relative to mutein “1” [2]: 127% | yield of Cytb562-StrepII applied [3]: 34%

B14: mutein“1”-m45 (designed binder)
chain: B6 chain with A31V, C32T, C39S, A104Y, W107G, K108F
notes: Library 3 clone on mutein “1”
(Δ(A405-A595)/Δt)max [1]: 566 mOD | KD(mutein“1”)/KDmutein [1]: 6.1 | Kd [1]: 18 nM | Retained Cytb562-StrepII [2]: 472 µg | Retained Cytb562-StrepII per immobilized mutein [2]: 0.39 µg/µg | Retained Cytb562-StrepII per immobilized mutein relative to mutein “1” [2]: 308% | yield of Cytb562-StrepII applied [3]: 67% | retained Cytb562-StrepII relative to wt streptavidin [15]: 28 fold
